# From US10472401B2, “Peptides and combination of peptides for use in immunotherapy against ovarian cancer and other cancers” (immatics biotechnologies GmbH, priority 2015, dated 2019)
# Target: HLA-A*02:01 (Homo sapiens, UniProt P04439, D140Y/D185E/D98H/E176V/E277Q/G131W/G231S/I119V/I121R/I166T/I218V/L300P/L318F/N151K/N90K/P208A/P217A/Q86G/Q94H/R138H/R169H/T345S)
# Assay: MHC binding assay (UV-ligand exchange, ELISA of stabilized MHC complexes)
# Conditions: MHC class I binding score; binding to HLA-A*02:01 ranged by peptide exchange yield (UV-ligand exchange, ELISA)
# Excerpt: Candidate peptides for T cell based therapies according to the present invention were further tested for their MHC binding capacity (affinity). The individual peptide-MHC complexes were produced by UV-ligand exchange, where a UV-sensitive peptide is cleaved upon UV-irradiation, and exchanged with the peptide of interest as analyzed. Only peptide candidates that can effectively bind and stabilize the peptide-receptive MHC molecules prevent dissociation of the MHC complexes. To determine the yield of the exchange reaction, an ELISA was performed based on the detection of the light chain (β2m) of stabilized MHC complexes. The assay was performed as generally described in Rodenko et al. (Rodenko et al., 2006).
# 96 well MAXISorp plates (NUNC) were coated over night with 2 ug/ml streptavidin in PBS at room temperature, washed 4× and blocked for 1h at 37° C. in 2% BSA containing blocking buffer. […] Peptide-MHC monomers of the UV-exchange reaction were diluted 100 fold in blocking buffer. Samples were incubated for 1h at 37° C., washed four times, incubated with 2 ug/ml HRP conjugated anti-82m for 1h at 37° C., washed again and detected with TMB solution that is stopped with […]. Absorption was measured at 450 nm. Candidate peptides that show a high exchange yield (preferably higher than 50%, most preferred higher than 75%) are generally preferred for a generation and production of antibodies or fragments thereof, and/or T cell receptors or fragments thereof, as they show sufficient avidity to the MHC molecules and prevent dissociation of the MHC complexes.
row,Peptide exchange,Substance
1,″++++″ (≥75% = ++++),196 (YLYSVEIKL; listed as Homo sapiens) [compound 196]
2,″++″ (≥20% = ++),197 (ALGPEGGRV; listed as Homo sapiens) [compound 197]
3,″+++″ (≥50% = +++),198 (KTINKVPTV; listed as Homo sapiens) [compound 198]
4,″+++″ (≥50% = +++),200 (LLFGSVQEV; listed as Homo sapiens) [compound 200]
5,″+++″ (≥50% = +++),201 (RLVDYLEGI; listed as Homo sapiens) [compound 201]
6,″+++″ (≥50% = +++),202 (ALLDQQGSRWTL; listed as Homo sapiens) [compound 202]
7,″++″ (≥20% = ++),204 (KIAENVEEV; listed as Homo sapiens) [compound 204]
8,″+++″ (≥50% = +++),205 (SLYPGTETMGL; listed as Homo sapiens) [compound 205]
9,″+++″ (≥50% = +++),206 (VLQEGKLQKLAQL; listed as Homo sapiens) [compound 206]
10,″++″ (≥20% = ++),207 (GLTSTNAEV; listed as Homo sapiens) [compound 207]
11,″+++″ (≥50% = +++),208 (KISPVTFSV; listed as Homo sapiens) [compound 208]
12,″++″ (≥20% = ++),209 (KLIESKHEV; listed as Homo sapiens) [compound 209]
13,″++″ (≥20% = ++),210 (LLLNAVLTV; listed as Homo sapiens) [compound 210]
14,″++″ (≥20% = ++),211 (LLWPGAALL; listed as Homo sapiens) [compound 211]
15,″++″ (≥20% = ++),212 (ALWDQDNLSV; listed as Homo sapiens) [compound 212]
16,″+++″ (≥50% = +++),214 (FLLDLDPLLL; listed as Homo sapiens) [compound 214]
17,″+++″ (≥50% = +++),215 (QLINHLHAV; listed as Homo sapiens) [compound 215]
18,″+++″ (≥50% = +++),216 (NLWEDPYYL; listed as Homo sapiens) [compound 216]
19,″++″ (≥20% = ++),217 (ALIHPVSTV; listed as Homo sapiens) [compound 217]
20,″++″ (≥20% = ++),218 (SALEELVNV; listed as Homo sapiens) [compound 218]
21,″+++″ (≥50% = +++),219 (KLSDIGITV; listed as Homo sapiens) [compound 219]

row,Peptide exchange,Substance
1,″++″ (≥20% = ++),220 (LLQKFVPEI; listed as Homo sapiens) [compound 220]
2,″++″ (≥20% = ++),221 (ALYEEGLLL; listed as Homo sapiens) [compound 221]
3,″++″ (≥20% = ++),222 (NLIENVQRL; listed as Homo sapiens) [compound 222]
4,″+++″ (≥50% = +++),223 (ALLENIALYL; listed as Homo sapiens) [compound 223]
5,″+++″ (≥50% = +++),224 (TLIDAQWVL; listed as Homo sapiens) [compound 224]
6,″+++″ (≥50% = +++),225 (SLLKVLPAL; listed as Homo sapiens) [compound 225]
7,″++″ (≥20% = ++),226 (MLYVVPIYL; listed as Homo sapiens) [compound 226]
8,″++″ (≥20% = ++),227 (ALMNTLLYL; listed as Homo sapiens) [compound 227]
9,″++″ (≥20% = ++),228 (AMQEYIAVV; listed as Homo sapiens) [compound 228]
10,″++″ (≥20% = ++),229 (RLPGPLGTV; listed as Homo sapiens) [compound 229]
11,″+″ (≥10% = +),230 (ILVDWLVEV; listed as Homo sapiens) [compound 230]
12,″++″ (≥20% = ++),231 (FLSPQQPPLLL; listed as Homo sapiens) [compound 231]
13,″++″ (≥20% = ++),232 (ALLEAQDVELYL; listed as Homo sapiens) [compound 232]
14,″++″ (≥20% = ++),233 (VLSETLYEL; listed as Homo sapiens) [compound 233]
15,″++″ (≥20% = ++),234 (ALMEDTGRQML; listed as Homo sapiens) [compound 234]
16,″++++″ (≥75% = ++++),235 (YLNDLHEVLL; listed as Homo sapiens) [compound 235]
17,″+++″ (≥50% = +++),236 (GLLEAKVSL; listed as Homo sapiens) [compound 236]
18,″++++″ (≥75% = ++++),237 (ALLEASGTLLL; listed as Homo sapiens) [compound 237]
19,″+++″ (≥50% = +++),238 (YLISFQTHI; listed as Homo sapiens) [compound 238]
20,″+++″ (≥50% = +++),239 (AAFAGKLLSV; listed as Homo sapiens) [compound 239]
21,″+++″ (≥50% = +++),240 (ILLEQAFYL; listed as Homo sapiens) [compound 240]

# Continued, substance first:
row,Substance,Peptide exchange
1,167 (KVLEVTEEFGV; listed as Homo sapiens) [compound 167],″+++″ (≥50% = +++)
2,168 (KILDADIQL; listed as Homo sapiens) [compound 168],″++++″ (≥75% = ++++)
3,169 (NLPEYLPFV; listed as Homo sapiens) [compound 169],″+++″ (≥50% = +++)
4,170 (RLQETLSAA; listed as Homo sapiens) [compound 170],″+++″ (≥50% = +++)
5,171 (LLLPLQILL; listed as Homo sapiens) [compound 171],″+++″ (≥50% = +++)
6,172 (VLYSYTIITV; listed as Homo sapiens) [compound 172],″++″ (≥20% = ++)
7,173 (LLDSASAGLYL; listed as Homo sapiens) [compound 173],″+++″ (≥50% = +++)
8,174 (ALAQYLITA; listed as Homo sapiens) [compound 174],″+++″ (≥50% = +++)
9,175 (YLFENISQL; listed as Homo sapiens) [compound 175],″+++″ (≥50% = +++)
10,176 (YLMEGSYNKVFL; listed as Homo sapiens) [compound 176],″++″ (≥20% = ++)
11,177 (YLLPEEYTSTL; listed as Homo sapiens) [compound 177],″++++″ (≥75% = ++++)
12,178 (ALTEIAFVV; listed as Homo sapiens) [compound 178],″++++″ (≥75% = ++++)
13,179 (KVLNELYTV; listed as Homo sapiens) [compound 179],″+++″ (≥50% = +++)
14,180 (FQIDPHSGLVTV; listed as Homo sapiens) [compound 180],″++″ (≥20% = ++)
15,181 (LLWAGTAFQV; listed as Homo sapiens) [compound 181],″+++″ (≥50% = +++)
16,182 (MLLEAPGIFL; listed as Homo sapiens) [compound 182],″+++″ (≥50% = +++)
17,183 (FGLDLVTEL; listed as Homo sapiens) [compound 183],″+++″ (≥50% = +++)
18,184 (YLMDINGKMWL; listed as Homo sapiens) [compound 184],″+++″ (≥50% = +++)
19,185 (FLIDDKGYTL; listed as Homo sapiens) [compound 185],″++″ (≥20% = ++)
20,186 (TLFFQQNAL; listed as Homo sapiens) [compound 186],″++″ (≥20% = ++)
21,187 (RQISIRGIVGV; listed as Homo sapiens) [compound 187],″+++″ (≥50% = +++)
22,188 (GLFPVTPEAV; listed as Homo sapiens) [compound 188],″+++″ (≥50% = +++)
23,189 (ALQRKLPYV; listed as Homo sapiens) [compound 189],″+++″ (≥50% = +++)
24,190 (FLSSLTETI; listed as Homo sapiens) [compound 190],″+++″ (≥50% = +++)
25,191 (LLQEGQALEYV; listed as Homo sapiens) [compound 191],″++″ (≥20% = ++)
26,192 (KMLDGASFTL; listed as Homo sapiens) [compound 192],″+++″ (≥50% = +++)
27,193 (QLLDADGFLNV; listed as Homo sapiens) [compound 193],″+++″ (≥50% = +++)
28,194 (ALPLFVITV; listed as Homo sapiens) [compound 194],″+++″ (≥50% = +++)
29,195 (GLFADLLPRL; listed as Homo sapiens) [compound 195],″+++″ (≥50% = +++)
